Data as given in patent US20210347867A1 (GEORG AUGUST UNIVERSIT T G TTINGEN STIFTUNG FFENTLICHEN …, published 2021).
Residue numbers refer to the chain shown, from its start. Names and notes keep the numbering of the source. Like-named read-outs stand apart in the source and are kept apart here. Values belong to the binder of their own block, whether it stands above or below them.

Columns and labels:
[1] = biological target: T1, amyloid peptide Aβ4-42 (UniProt P05067 675-713); experiment: ELISA, plate coated with Anaspec Aβ4-42, antibody titrated after incubation in PBS or in mouse, human or cynomolgus serum, blank-subtracted OD650
T1 construct: domain: Aβ4-42; Bought synthetic peptide; also called Anaspec Aβ4-42
T1 sequence (P05067 675-713 limits assumed): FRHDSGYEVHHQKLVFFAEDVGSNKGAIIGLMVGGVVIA

[2] = biological target: T2, amyloid peptide AβpE3-42 (UniProt P05067 674-713, N-terminal pyroglutamate (pE) at Aβ position 3); experiment: ELISA, plate coated with AβpE3-42 (PSL), antibody titrated, blank-subtracted OD650
T2 construct: domain: AβpE3-42; Bought synthetic peptide; also called AβpGlu3-42; Aβ(Glp3)3-42
T2 sequence (P05067 674-713 limits assumed): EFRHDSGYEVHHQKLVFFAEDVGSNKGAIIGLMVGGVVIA
Procedure: (§1) Each well of a […] MaxiSorp plate (Nunc) was coated with 50 μL aliquots of 200 ng/mL of 1-42, pE3-42 or 4-42 amyloid peptides in PBS and incubated overnight at 4° C. The wells were washed 3× with PBS-T (0.1% Tween20) and blocked with 150 μL of 5% milk in PBS/0.05% Tween20 per well. The wells were then incubated at RT with shaking for 1 hour and washed 3× with PBS-T (0.1% Tween20). 50 μl of primary antibody serially diluted in 1% milk PBS/0.05% Tween20 was added to the wells of the assay plate using a 3-fold dilution series starting from ˜100 μg/mL. The incubation and washing step was then repeated. Anti-human kappa chain HRP (Sigma A7164-1 mL) was diluted 4,000-fold in PBS/1% milk/0.05% Tween20 and 50 μl added to each well. The incubation and washing step was repeated and then 75 μL of K-Blue substrate (Neogen) was added per well and incubated for 5-10 minutes at RT. The reaction was stopped by adding 50 μl of RED STOP solution (Neogen) to each well and the optical density was read at 650 nm.

[3] = biological target: T1, amyloid peptide Aβ4-42; experiment: ELISA, plate coated with Anaspec Aβ4-42, antibody titrated after incubation in PBS or in mouse, human or cynomolgus serum, blank-subtracted OD650 [continued]
[4] = biological target: T2, amyloid peptide AβpE3-42; experiment: ELISA, plate coated with AβpE3-42, antibody titrated, blank-subtracted OD650
Procedure: as §1
Therefore, F67Y, Y68N, I39W and an additional variant that combined F67Y and Y68N were generated (Table 2) and binding to Aβ1-42, AβpE3-42 and 4-42 was investigated. […] Five additional variants of the heavy chain were generated with the following mutations, S53M, S53H, R100H, L103R and L103H (Table 4b). In addition, five variants of the light chain were also generated RKF (N92W), RKG (N92Y), RKH (N92H), RKI (L94R) and RIC (L94H).

[5] = biological target: T2, amyloid peptide AβpE3-42; experiment: ELISA, plate coated with AβpE3-42, antibody titrated, A650nm
Procedure: as §1

[6] = biological target: T2, amyloid peptide AβpE3-42; experiment: ELISA, plate coated with AβpE3-42 (target by legend paragraph 24), antibody titrated, A650nm
Procedure: as §1

[7] = biological target: T2, amyloid peptide AβpE3-42; experiment: ELISA, plate coated with AβpE3-42, antibody titrated, signal as % Max
Procedure: as §1

[8] = biological target: T1, amyloid peptide Aβ4-42; experiment: assay not given; binding to Aβ1-42, AβpE3-42 and 4-42 was investigated
[9] = biological target: T2, amyloid peptide AβpE3-42; experiment: as above
[10] = biological target: T2, amyloid peptide AβpE3-42; experiment: ELISA, plate coated with AβpE3-42 from PSL, antibody titrated, A650nm
Procedure: as §1

[11] = biological target: T2, amyloid peptide AβpE3-42; experiment: as above; remark: listed apart in the source
[12] = biological target: T1, amyloid peptide Aβ4-42; experiment: ELISA, plate coated with Aβ4-42 from PSL, antibody titrated, A650nm
[13] = biological target: T2, amyloid peptide AβpE3-42; experiment: ELISA, plate coated with AβpE3-42 from California peptides (Cal Hu), antibody titrated, A650nm
[14] = biological target: T2, amyloid peptide AβpE3-42; experiment: ELISA, plate coated with AβpE3-42, antibody titrated, A650nm; remark: listed apart in the source
Procedure: as §1

[15] = biological target: T1, amyloid peptide Aβ4-42; experiment: SPR, Biacore T200; SPR (Biacore T200), apparent KD comparable to the mouse antibody
[16] = biological target: T3, amyloid peptide Aβ1-42 (UniProt P05067 672-713); experiment: ELISA, plate coated with Aβ1-42 (target by legend paragraph 23), antibody titrated, signal as % Max; the value lies beyond the highest concentration shown
T3 construct: domain: Aβ1-42; Bought synthetic peptide; also called amyloid full length peptide Aβ1-42
T3 sequence (P05067 672-713 limits assumed): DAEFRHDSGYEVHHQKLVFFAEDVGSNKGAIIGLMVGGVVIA

binding result [1]: binds
binding result [2]: binds
B1: humanized NT4X-167 RHS/RKA (antibody, mouse IgG1, V domains shown)
VH: QVQLQESGPGLVKPSETLSLTCTVSGFSLSSYGIHWIRQPPGKGLEWIGVMWSGGITDFYAAFISRVTISRDTSKNQVSLKLSSVTAADTAVYYCARGSRYALDYWGQGTLVTVSS
VL: DIQMTQSPSSLSASVGDRVTITCRASQDISNYLNWYQQKPGKAPKLLIYYTSRLHSGVPSRFSGSGSGTDFTLTISSLQPEDFATYYCQQGNTLPPTFGGGTKLEIK
notes: also called SA; RHS/KA

binding result [3]: binds
binding result [4]: binds
B2: humanized NT4X-167 RHS7/RKA (antibody, mouse IgG1, V domains shown)
VH: B1 VH with D58N, A61P, A62S, F63L, I64K
VL: B1 VL
notes: also called S7A

binding result [5]: binds
B3: humanized NT4X-167 RHM/RKA (antibody, mouse IgG1, V domains shown)
VH: B1 VH with I48L, V67L, L82M
VL: B1 VL

binding result [2]: binds
B4: humanized NT4X-167 RHT/RKA (antibody, mouse IgG1, V domains shown)
VH: B1 VH with S30T
VL: B1 VL
notes: also called TA

binding result [5]: binds
B5: humanized NT4X-167 RHQ/RKA (antibody, mouse IgG1, V domains shown)
VH: B1 VH with S30T, I48L, V67L, V78F, L82M
VL: B1 VL

binding result [4]: no binding (tested: about 120 ug/ml)
B6: (rcNT4X_S6A) R1 (antibody, V domains shown)
VH: B1 VH with H35S
VL: B1 VL
notes: also called RHS6/RKA

binding result [5]: binds
B7: humanized NT4X-167 RHR/RKA (antibody, mouse IgG1, V domains shown)
VH: B1 VH with S30T, I48L, V67L
VL: B1 VL

EC50 [6]: 2.74 µg/mL
EC50 [7]: 0.377 µg/mL
B8: humanized NT4X-167 RHB/RKB (antibody, mouse IgG1, V domains shown)
VH: B1 VH with S30T, I48L, V67L, L82M
VL: B1 VL with K42G, F71Y, Y87F
notes: also called HB/KB

binding result [5]: binds
B9: humanized NT4X-167 RHO/RKA (antibody, mouse IgG1, V domains shown)
VH: B1 VH with S30T, I48L, L82M
VL: B1 VL

binding result [5]: binds
B10: humanized NT4X-167 RHK/RKA (antibody, mouse IgG1, V domains shown)
VH: B1 VH with F27G, S30T, I48L, V67L, L82M
VL: B1 VL

binding result [5]: binds
B11: humanized NT4X-167 RHN/RKA (antibody, mouse IgG1, V domains shown)
VH: B1 VH with S30T, V67L, L82M
VL: B1 VL

EC50 [6]: 3.86 µg/mL
EC50 [7]: 0.341 µg/mL
B12: humanized NT4X-167 RHB/RKA (antibody, mouse IgG1, V domains shown)
VH: B1 VH with S30T, I48L, V67L, L82M
VL: B1 VL
notes: also called BA

binding result [4]: no binding (tested: about 120 ug/ml)
B13: (rcNT4X_S8A) R1 (antibody, V domains shown)
VH: B1 VH with H35S, D58N, A61P, A62S, F63L, I64K
VL: B1 VL
notes: also called RHS8/RKA

binding result [5]: binds
B14: humanized NT4X-167 RHL/RKA (antibody, mouse IgG1, V domains shown)
VH: B1 VH with L29I, S30T, I48L, V67L, L82M
VL: B1 VL

binding result [8]: binds
binding result [9]: binds
B15: humanized NT4X-167 RHS71/RKA (antibody, V domains shown)
VH: B1 VH with D58N, F59Y, A61P, A62S, F63L, I64K
VL: B1 VL
notes: also called RHS71 (F67Y) with RKA

binding result [5]: binds
B16: humanized NT4X-167 RHP/RKA (antibody, mouse IgG1, V domains shown)
VH: B1 VH with S30T, I48L, V67L, R71V, L82M
VL: B1 VL

EC50 [10]: 24.9 nM
EC50 [11]: 24.9 nM
EC50 (read off the curve) [5]: ~0.5 µg/mL
binding result [12]: binds
EC50 [13]: 15.7 nM
EC50 [6]: 2.4 µg/mL
EC50 (read off the curve) [14]: ~0.5 µg/mL
B17: murine NT4X-167 antibody (antibody, V domains shown)
VH: QVQLKQSGPGLVQPSQSLSITCTVSGFSLTSYGIHWVRQSPGKGLEWLGVMWSGGITDFYAAFISRLSISRDISKSQVFFKMNSLQADDTAIYYCARGSRYALDYWGQGTSVSVSS
VL: DIQMTQTTSSLSASLGDRVTISCRASQDISNYLNWYQQKPDGTVKLLIYYTSRLHSGVPSRFSGSGSGTDYSLTISNLEQEDIATYFCQQGNTLPPTFGGGTKLEIK
notes: Mouse hybridoma antibody; also called original mouse NT4X antibody

EC50 [10]: 47.1 nM
EC50 (read off the curve) [5]: ~0.07 µg/mL
EC50 [6]: 0.227 µg/mL
binding result [15]: binds
EC50 [7]: 0.118 µg/mL
EC50 (read off the curve) [14]: ~0.07 µg/mL
EC50 [16]: 214 µg/mL
B18: chimeric NT4X-167 antibody (antibody, V domains shown)
VH: B17 VH
VL: B17 VL
notes: also called chimeric positive control antibody
